Read-outs that look alike come from different tables or passages of the source.
Legend:
pepsin [1] = target: T1, pepsin (Sus scrofa, UniProt P00791); experiment: Gastric stability of superoxide dismutases (method of Example 10, gastric treatment with pepsin); format: in vitro ADME
T1 construct: purchased Sigma P7000; host or cells: porcine gastric mucosa (natural source)
Experimental: retains only 26% of its activity upon gastric treatment in the presence of pepsin.
Two commercial SODs were tested as references: SOD-Mn, from E. coli Sigma S5639 with a activity of 10240 U/mg EP and only 26% activity left after gastric press for 30 min; and SOD-Cu/Zn from Bovine expressed in E. coli Sigma S9697 with activity of 6108 U/mg EP and only 35% activity left after gastric press for 30 min.

[2] = Thermal stability of superoxide dismutases at different pH, Tm unfolding temperature (method of Example 11); format: physicochemical
Experimental: Tm: The term Tm, as used in the Examples refers to the temperature at which 50% of the protein molecules are unfolded and 50% of the protein molecules are folded.
Test were performed on the super oxide dismutases of the invention to measure the temperature at different acidity/alkalinity to determine the temperature at which the polypeptide unfolds and denatures. […] A further embodiment is directed to an animal feed additive comprising a fungal superoxide dismutase thermally stable at pH 7, when measured according to the method described in Example 11, such that protein unfolding (Tm) is 45° C. or more.

pepsin [3] = target: T1, pepsin; experiment: Gastric stability of superoxide dismutases (method of Example 10, gastric treatment with pepsin); format: in vitro ADME; remark: listed apart in the source
[4] = Superoxide dismutase activity (method of Example 9, pH 7.8); format: biochemical; details: SOD activity
[5] = Growth performance of early weaned piglets fed SOD and CAT; format: in vivo
Experimental: The effect of antioxidant enzymes (SOD and CAT) alone at different doses and in combination on the growth performance of early weaned piglets was evaluated in a trial run. A total of eight treatments were tested during the study: 6 test groups: SOD (Product A, SEQ ID No. 1 at 1250 and 2500 U/kg), CAT (Product B, SEQ ID NO 7 and Product C, […]; […]); were compared against a Positive Control feed (fed with Avilamycin at 90.7 g/lb) and a Negative Control (standard ration). Each of treatments contained 12 replicates per treatment randomly assigned and containing 5 male piglets per replicate for a total number of 480 animals on study. Piglets were randomly assigned to treatments on Trial Day 0 (post-weaning at 21 days of age). At 42 days of age, live performance (growth weight gain and feed conversion) was determined. All rations were formulated with an increase of approximately 5-6% additional crude protein above normal commercial levels. Blood samples were collected at day 0, 14 and 42 to evaluate oxidative stress parameters at DSM. Gut tissue samples at the duodenum and ileum to evaluate gene expression linked to oxidative stress, and intestinal content (ileum and caecum), to study the microbiome population, were collected from 12 animals at the beginning of the trial (baseline) and one animal per pen (12 piglets×8 treatments) at day 14 and at day 42.
The commercial-simulated test model employed in this study used piglets reared under a normal swine industry Starter diet (Trial Day 0-21) and Grower diet (Trial Day 21-42), reared on slatted floors. Ration formulations were conducted via computer-generated linear regression program that simulates formulations conducted during practical swine production techniques. Treatments were tested in male piglets. Piglets were continuously fed their experimental diets from time of placement on Trial Day 0 to Trial Day 42.
Piglets were weighed and randomly placed into each pen on Trial Day 0 and fed their respective diets. Each pen had sufficient floor density, feeder and waterer space for each grow-out area for the piglets. Following 42 days of grow-out, piglets were weighed, feed consumption determined, and feed conversion (feed consumed/[…]) calculated.
A total of 500 male piglets (a sufficient number to ensure availability of at least 480 healthy male piglets for the conduct of the study) were obtained from a swine breeder on Trial Day 0 (upon weaning, when the piglets were 21 days of age). Piglets were fed their respective treatment feed ad libitum from Trial Day 0 to Trial Day 42.
Each experimental test unit of swine pens was housed in separated pens, located in a room containing forced air heaters with a cross-house ventilation system. Piglets were placed in a 6 ft×6 ft pen floor area with a minimum of 9.0 ft^2 per piglet (without feeder and waterer space) provided. At least two nipple drinkers per pen (via well water) provided water. Piglets were observed daily for overall health, behavior and/or evidence of toxicity, and environmental conditions. Temperature in the test facility was checked daily. Drinking water and feed were confirmed to be provided ad libitum. No type of medication (other than test material) was administered during the entire feeding period.
Live performance body weights and feed intakes were collected on Days 0, 14, 21, and 42 during the growing period. Weight gain, feed intake, feed:gain ratio (feed efficiency) were calculated for 0-42 days of age between weaning and Trial Day 42. Differences between piglets fed control and test groups were statistically evaluated at P<0.05 in a typical ANOVA analysis of variance test model, employing Treatment×Replicate RCB (Randomized Complete Block). Control group was considered to be the following: Treatment 2, containing Avilamycin at 90.7 g/lb.
Diets were fed in two feed phases: Starter diet (0-21 days of age) and Grower diet (21-42 days of age). All diets were offered ad libitum, without restriction. […]

[6] = Piglet trial, growth performance d0-42; format: in vivo; details: piglets, days 0-42
Excerpt: FIG. 17: illustrates the Conversion Ratio (FCR) in piglets from days 0-42. There was significant difference observed in growth performance between positive and negative control.

T1 sequence (P00791 60-385): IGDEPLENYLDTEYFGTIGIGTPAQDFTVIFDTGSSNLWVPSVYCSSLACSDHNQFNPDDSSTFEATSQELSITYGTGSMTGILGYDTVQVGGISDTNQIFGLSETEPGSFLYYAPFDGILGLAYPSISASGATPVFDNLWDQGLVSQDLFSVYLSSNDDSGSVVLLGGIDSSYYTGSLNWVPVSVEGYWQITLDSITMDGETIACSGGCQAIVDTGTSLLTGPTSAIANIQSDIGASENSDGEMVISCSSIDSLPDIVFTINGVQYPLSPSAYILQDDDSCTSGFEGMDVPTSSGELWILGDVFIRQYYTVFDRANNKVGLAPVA

S9697 Bovine Cu/Zn SOD SIGMA: commercially available superoxide dismutase from bovine erythrocytes and expressed in E. coli of sequence A
activity left after gastric press for 30 min (pepsin [1]): 35%
activity retained upon gastric treatment in the presence of pepsin (pepsin [1]): 26%
loss of activity under gastric stability studies (pepsin [1]): 65%
activity retained at 50° C. ([2]; 50° C., method of Example 11): very little
Tm (unfolding temperature) ([2]; pH 3): 50.8 °C
Tm (unfolding temperature) ([2]; pH 4): 59.3 °C
Tm (unfolding temperature) ([2]; pH 5): 63.9 °C
Tm (unfolding temperature) ([2]; pH 6): 66.2 °C
Tm (unfolding temperature) ([2]; pH 7): 65.2 °C
Tm (unfolding temperature) ([2]; pH 8): 63.1 °C
Tm (unfolding temperature) ([2]; pH 9): 61.0 °C
Tm (unfolding temperature) ([2]; pH 10): 57.0 °C
Gastric stability after 15 min (remaining activity, approx, %) (pepsin [3]; 0.25 h): 35%
Relative Activity Unit (U/mg EP) [4]: 6108 U/mg EP

COC[C@H]1O[C@@H](OC2OC[C@@H]3O[C@]4(O[C@H]3[C@H]2OC(=O)C(C)C)O[C@H](C)[C@@](O)(C(C)=O)[C@@H]2OCO[C@H]24)[C@@H](OC)[C@@H](O)[C@@H]1O[C@@H]1O[C@H](C)[C@H](OC)[C@H](O[C@H]2C[C@@]3(C)OC4(C[C@@H](O)[C@H](O[C@H]5C[C@@H](O)[C@H](OC(=O)c6c(C)c(Cl)c(O)c(Cl)c6OC)[C@@H](C)O5)[C@@H](C)O4)O[C@@H]3[C@@H](C)O2)[C@H]1O (stereo partly drawn) [T2, Avilamycin]
feed conversion (FCR) ([5]; d0-d42, vs Negative Control, SOD+CAT 400:100 U/kg): improved
Average Body Wt. Gain (kg) Day 0-14 ([5]; piglets, day 0-14): 3.720 kg
Feed Conversion Corrected Day 0-14 ([5]; piglets, day 0-14): 1.215
Feed Intake (kg/pig) Day 0-14 ([5]; piglets, day 0-14): 4.52 kg/pig
Mortality % Day 0-14 ([5]; piglets, day 0-14): 0.000%
Average Body Wt. (kg) Day 14 ([5]; piglets, day 14): 9.215 kg
Body Weight Coefficient of Variation (Day 14) ([5]; piglets, day 14): 4.700

B1: SEQ ID NO 35: superoxide dismutase; donor Trichoderma rossicum in b755, Trichoderma sp-44174 in b566 (protein)
chain: MRASGILTVLSLAVSSCVAEKDAPIVTGNPHSVEYKATLPKKPFFSNAALVGNVKGYVSAVAAPSGKGVRFSVQFENFPKSGGPFMYHIHEEPATNGNCTSTLAHLDPYHRGETPACDSSKPETCQVGDLSGKYGKITSDPFVAEYFDLYTSLQPGSPAFFGNRSIVVHYANKTRLTCANFAKLPVSDTATKAHTTTSAHHTVIHGPAASGGRHNTTSSHNITGPHYTTGSHHTTDVSPTGSLNPTGIVTAPGSPTTPATFTTVAAGGSASATSSIVPFPGAASGNRVSLALLSGVVAAMFFSL
modifications: Trichoderma sp-44174
notes: superoxide dismutase; donor Trichoderma rossicum, Trichoderma sp-44174 in b566
activity retained under gastric stability studies (pepsin [1]): at least 40%
Relative Activity Unit (U/mg EP) [4]: ~3000 U/mg EP

B2: SEQ ID NO 37: superoxide dismutase; donor Trichoderma sp-54723 in b755, Trichoderma rossicum in b566 (protein, listed as Trichoderma rossicum)
chain: MRASGILAVLSLAVSGCIAEKDAPIVTGNPHSVEYKATLPKKPFFSNAALVGNVKGYVSAVAAPSGKGVRFSVQFENFPKSGGPFMYHIHEEPATNGNCTSTLAHLDPYHRGETPACDSSKPETCQVGDLSGKYGKITSDPFVAEYFDLYTSLQPGSPAFFGNRSIVVHYANKTRLTCANFAKLPVSDTATKAHTTTSAHHTVIHGPAASGGRHNTTSSHNITGPHYTTGSHHTTDVSPTGSLNPTGIVTAPGSPTTPATFTTVAAGGSASATSSIVPFPGAASGNRVSLALLSGVVAAMFFSL
activity retained under gastric stability studies (pepsin [1]): at least 40%

B3: Catalase: Catalase fed alone in the piglet trial of FIG. 17 (protein)
chain: MRHFWLLPAVAGIAGAQCPYLSGEMSFTQEQDNAGDTIEVTEQTIDNTLYVNDTGSYMTTDFGTPISDQYSLKAGRRGPTLLEDFIFRQKLQRFDHERVPERVVHARGAGAYGTFKSYADWSNVTAADFLSANEKETPMFCRFSTVVGFRGSVDTARDVHGHACRFYTDEGNYDIVGINFAPFFIQDAIQFPDLVHAIKPMPNNEIPQAATAHTSAWDFFSQQSTALHSALWLMSGNGIPRSFRHMNGYGVHSFRFVAANGTSKVVRYRWKSQQGVASLVWEEAQAAAGKNSDYHRQDLYNAIANGHYPKYELQAQIMDEADMLRFGFDLLDPTKLVPEEVVPYTPLGMMELNANPTNYFAEVEQAGFQPGHVVPGIDFTDDPLLQGRLFSYLDTQLTRHGGPNFEQIPVNRPRKPVHNNNRDGFGQQQIPTNNWAYTPNTMSNGYPMQANQTHGHGFFTSPYRYASGHLIREPSPTFHDHWSQPAMFWNSLIPAEQQMVVNAIVFENSKVNSPHVRKNVVNQLNMVNNNLAVRVARGLGLDEPSPNPTYYTSNKTSNVGTFGKPLLSIEGLQVGFLASNSHPESIKQGQAMAAQFSAAGVDLNIVTEAYADGVNTTYALSDAIDFDALIIADGVQSLFASPSLANQMNSTATSTLYPPARPYQILVDSFRYGKPVAAVGSGSAALKNAGIDTSRSGVYTGSSETTENIAKEVLKGLYTFRFVDRFALDE
modifications: Aspergillus niger; mat_peptide (1)..(740)
Feed Conversion Ratio (FCR) [6]: significantly improved the FCR

B4: S5639 from Sigma Mn-SOD Escherichia coli: commercially available bacterial (from E. coli) Mn-SOD (protein, UniProt P00448 2-206, looked up)
Superoxide dismutase [Mn]: SYTLPSLPYAYDALEPHFDKQTMEIHHTKHHQTYVNNANAALESLPEFANLPVEELITKLDQLPADKKTVLRNNAGGHANHSLFWKGLKKGTTLQGDLKAAIERDFGSVDNFKAEFEKAAASRFGSGWAWLVLKGDKLAVVSTANQDSPLMGEAISGASGFPIMGLDVWEHAYYLKFQNRRPDYIKEFWNVVNWDEAAARFAAKK
loss of activity under gastric stability studies (pepsin [1]): 57%
activity left after gastric press for 30 min (pepsin [1]; 30 min): 26%
Gastric stability after 15 min (remaining activity, approx, %) (pepsin [3]; after 15 min, method of Example 10): 26%
Relative Activity Unit (U/mg EP) [4]: 10240 U/mg EP

B5: SEQ ID NO 18: superoxide dismutase from Cladobotryum sp. (protein)
chain: MARQGLFLASLLIFPFASCAASEDPTGSKPQFASIPDSQQALLGSFSSTMSVSTFSLPALPYAYDALEPSISAQIMELHHSKHHQTYVNNLNNALKSYFVAISANDVPSQIALQAAVKFNGGGHINHSLFWENLCPATSPDADPQSAPTLAAEISKTWGSLEGFKDAMSKALLGLQGSGWGWLVKDGRALRIVTTKDQDPVVGGEVPIFGIDMWEHAYYLQYLNGKAAYVENIWKVINWKTAERRFIGDRDDAFKILKASI
modifications: Cladobotryum sp
activity retained under gastric stability studies (pepsin [1]): at least 40%
